We go through 10 molecules from US20190367592A1 (AC IMMUNE, published 2019).

In assay [1] the target is T1, recombinant human Tau monomer, 2N4R isoform (amino acids 2-441) (human, UniProt P10636-8 2-441).
T1 construct: range 2-441; N-terminal His-tag removed with TEV protease; also called monomeric Tau
In words: SPR; Normalized Rmax post-stress (2 weeks 40 C) / pre-stress. Summed up: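 Antibodies purified by protein A tip columns were normalized to 0.1 mg/ml; pre-stress kept ~4° C., post-stress held at 40° C. for two weeks. IgG (2 μg/ml) was captured on an anti-human IgG CM5 chip, Tau monomer injected at 0, 26.5 and 265 nM, 25° C., in HBSP; KD from 1:1 fit.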

The target of assay [2] is T1, recombinant human Tau monomer, 2N4R …. Put plainly: SPR, captured IgG, Tau monomer analyte, 1:1 model; fit-quality column: -. The protocol:
Briefly, IgGs in 1 mL culuture were captured using tip columns that were custom packed with 20 μL MabSelect SuRe resin (Glygen Corp & GE Healthcare). After washing with 1×PBS pH 7.4, IgGs were eluted into 160 μL of 50 mM phosphoric acid pH 3 and neutralized with 12 μL of 20×PBS pH 11. MabSelect SuRe tip columns were stripped in 0.1 M NaOH and regenerated with 1×PBS pH 7.4 for consecutive use of up to 15 times. Purified antibodies in 96-well format were normalized to 0.1 mg/ml using a Hamilton Star liquid handling robot. The “pre-stress” samples were kept at approximately 4° C. and the “post-stress” samples were incubated at 40° C. for two weeks in a PCR machine. Functional stability of the variants was compared by running surface plasmon resonance kinetics experiments with the “pre-stress” and “post-stress” antibody preps. The antibodies were assessed using a human antibody capture CM5 Series S chip generated using the GE Biacore human IgG capture kit and a Biacore T200 instrument. Antibodies diluted to 2 μg/ml were immobilized using a 15 second injection time and 10 μl/min flow rate. Binding to Tau monomer at 0 nM, 26.5 nM and 265 nM, at 25° C., using a flow rate of 40 μl/min, was monitored for a 180 second association phase followed by a 300 second dissociation phase. Samples were run in 10 mM HEPES pH7.4, 150 mM NaCl, 0.05% Tween 20 (HBSP) using a multi-cycle kinetics format. Data was analyzed using BIAevaluation software, fitting a 1:1 binding model. The resulting affinity (KD) values are shown in FIG. 8A-D. A Stability Index was also calculated, using the rationale that affinity-compromised antibodies (due for example to deamidation of key residues) are expected to contribute equally to the IgG capture level (“Ligand Level”) but to contribute less to the measured Tau binding, and that this would be reflected in the experimentally derived value for Rmax. To account for variations in the amount of each antibody captured, Rmax was normalized for the antibody capture level (as measured by “Ligand Level”, Response Units immobilized during antibody capture). Thus Normalized Rmax is calculated as the experimental Rmax (units=RU) divided by the “Ligand Level” (Evaluation output representing the RU captured during the hIgG capture step, units=RU), and Stability Index is calculated here as Normalized Rmax (post-stress) divided by Normalized Rmax (pre-stress).

The target is the same in assay [3]. In words: SPR single-cycle, human Fab capture kit, Tau monomer analyte; mean ± range, n=2. As to the method:
Affinity of the humanized antibody variants was measured at 25° C. using a Biacore T200 instrument, the GE Biacore human FAb capture kit, and a CM5 Series S chip. Antibodies were diluted to 1 μg/ml in HBSP (10 mM HEPES pH7.4, 150 mM NaCl, 0.05% Tween 20) and captured at a flow rate of 10 μl/min for 180 seconds. Kinetic data were collected for human Tau monomer injected at 1.2, 3.7, 11, 33 and 100 nM in HBSP using the Single Cycle Kinetics methodology and a flow rate of 30 μl/min. Each concentration of Tau monomer was injected for a period of 3 minutes and dissociation was monitored for ten minutes. Between cycles, the surface was regenerated with two sequential one-minute injections of 10 mM glycine pH2.1. Data was fit to a 1:1 binding model using BIAEvaluation software. Each antibody was analyzed twice within the experiment; data in Table 22 are shown as mean±range.

The target is the same in assay [4]. Put plainly: SPR high-resolution kinetics, hIgG1.
The target is the same in assay [5]. Put plainly: SPR screen, hIgG captured, Tau monomer analyte.
Assay [6] shares this target. In words: SPR screen, hIgG captured, Tau monomer analyte. An excerpt:
Antibody 125B11-H3 was humanized onto VH3 and Vκ1 consensus frameworks. The heavy chain graft included murine residues at position 78 (Kabat numbering system). The Vκ1 graft included murine residues in framework positions 43 and 87. The light chain of 113F5-F7 was also humanized onto the Vκ1 framework, with additional murine residues at framework positions 43 and 87. Humanized variant heavy chains (125B11) and light chains (125B11 and 113F5-F7) were co-transfected in multiple combinations and purified in 96-well format as described above. Humanized variants were then screened for affinity for human Tau monomer using the Biacore human IgG capture kit, a Series S CM5 chip and a Biacore T200 instrument. Antibodies were diluted to 2 μg/ml and captured for 15 seconds at 10 μl/min. Association and dissociation of 0, 100 and 500 nM human Tau monomer in HBSP was monitored for 180s and 300s respectively at a flow rate of 40 μl/min. A 1:1 binding model was applied to the results (Table 9).
The source holds these as a separate data set.

T1 sequence (P10636 other isoform, or with tags, fused parts or gaps limits assumed): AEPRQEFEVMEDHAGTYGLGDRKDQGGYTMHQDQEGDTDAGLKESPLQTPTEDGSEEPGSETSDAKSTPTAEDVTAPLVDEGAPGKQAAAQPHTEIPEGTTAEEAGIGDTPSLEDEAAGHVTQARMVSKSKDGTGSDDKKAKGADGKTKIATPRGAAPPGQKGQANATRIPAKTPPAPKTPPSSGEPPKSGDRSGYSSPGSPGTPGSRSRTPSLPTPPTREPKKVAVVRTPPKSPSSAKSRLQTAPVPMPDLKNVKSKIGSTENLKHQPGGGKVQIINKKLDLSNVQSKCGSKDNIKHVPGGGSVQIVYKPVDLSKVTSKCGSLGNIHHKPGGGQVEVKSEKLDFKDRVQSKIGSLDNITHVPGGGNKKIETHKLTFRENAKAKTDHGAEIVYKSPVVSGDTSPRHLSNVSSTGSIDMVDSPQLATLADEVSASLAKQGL

B1: hu37D3-H9.v30.9 (antibody, V domains shown)
VH: EVQLVESGGGLVQPGGSLRLSCAASGLIFRSYGMSWVRQAPGKGLEWVATINSGGTYTYYPDSVKGRFTISRDNSKNTLYLQMNSLRAEDTAVYYCANSYSGAMDYWGQGTLVTVSS
VL: DDVLTQTPLSLPVTPGQPASISCRSSQSIVHSHGNTYFEWYLQKPGQSPQLLIYKVSNRFSGVPDRFSGSGSGTDFTLKISRVEAEDVGVYYCFQGSLVPWTFGQGTKVEIK
As to B1, the “Stability Index” value in assay [1] turned out to be 63%. For the same molecule, in assay [2], the Kd worked out at 36.4 nM.

B2: hu37D3.v39 hIgG4.YTE (antibody, V domains shown)
VH: EVQLVESGGGLVQPGGSLRLSCAASGLIFRSYGMSWVRQAPGKGLEWVATINSGGTYTYYPDSVKGRFTISRDNSKNTLYLQMNSLRAEDTAVYYCANSYSGAMDYWGQGTLVTVSS
VL: EDQLTQSPSSLSASVGDRVTITCRSSQSIVHSNGNTYLEWYQQKPGKSPKLLIYKVSNRFSGVPSRFSGSGSGTDFTLTISSLQPEDFATYYCFQGSLVPWTFGQGTKVEIKR
notes: hu37D3-H9.v1 with light chain F33L; also called hu37D3.v39 hIgG4.S228P.YTE
Take B2: in assay [3], the Kd is 1.9 nM, the koff turned out to be 0.001 s⁻¹ and the kon was 600000 M⁻¹ s⁻¹.

B3: hu37D3.v28.A30 (antibody, V domains shown)
VH: EVQLVESGGGLVQPGGSLRLSCAASGLIFRSYGMSWVRQAPGKGLEWVATINSGGTYTYYPDSVKGRFTISRDNSKNTLYLQMNSLRAEDTAVYYCANSYSGAMDYWGQGTLVTVSS
VL: DVVMTQTPLSLPVTPGQPASISCRSSQSIVHSNGNTYLEWYLQKPGQSPQLLIYKVSNRFSGVPDRFSGSGSGTDFTLKISRVEAEDVGVYYCFQGSHVPWTFGQGTKVEIK
Take B3: the “Stability Index” value in assay [1] stood at 77%. The Kd in assay [2] came out at 34.4 nM.

B4: hu37D3.v41 hIgG4.YTE (antibody, V domains shown)
VH: EVQLVESGGGLVQPGGSLRLSCAASGLIFRSYGMSWVRQAPGKGLEWVATINSGGTYTYYPDSVKGRFTISRDNSKNTLYLQMNSLRAEDTAVYYCANSYSGAMDYWGQGTLVTVSS
VL: EDQLTQSPSSLSASVGDRVTITCRSSQSIVHSNGQTYFEWYQQKPGKSPKLLIYKVSNRFSGVPSRFSGSGSGTDFTLTISSLQPEDFATYYCFQGSLVPWTFGQGTKVEIKR
notes: hu37D3-H9.v1 with light chain N30Q; also called hu37D3.v41 hIgG4.S228P.YTE
B4: in assay [3], the Kd turned out to be 5.4 nM, the koff was determined as 0.005 s⁻¹ and the association rate constant (kon) came to 900000 M⁻¹ s⁻¹.

B5: hu37D3.v40 hIgG4.YTE (antibody, V domains shown)
VH: EVQLVESGGGLVQPGGSLRLSCAASGLIFRSYGMSWVRQAPGKGLEWVATINSGGTYTYYPDSVKGRFTISRDNSKNTLYLQMNSLRAEDTAVYYCANSYSGAMDYWGQGTLVTVSS
VL: EDQLTQSPSSLSASVGDRVTITCRSSQSIVHSNTNTYFEWYQQKPGKSPKLLIYKVSNRFSGVPSRFSGSGSGTDFTLTISSLQPEDFATYYCFQGSLVPWTFGQGTKVEIKR
notes: hu37D3-H9.v1 with light chain G29T; also called hu37D3.v40 hIgG4.S228P.YTE
For the molecule B5, in assay [3], the dissociation constant Kd amounted to 4.4 nM, the koff worked out at 0.003 s⁻¹ and the on-rate (kon) is 800000 M⁻¹ s⁻¹.

B6: hu37D3-H9.v1 hIgG1 (antibody)
heavy: not shown
light: EDQLTQSPSSLSASVGDRVTITCRSSQSIVHSNGNTYFEWYQQKPGKSPKLLIYKVSNRFSGVPSRFSGSGSGTDFTLTISSLQPEDFATYYCFQGSLVPWTFGQGTKVEIKRTVAAPSVFIFPPSDEQLKSGTASVVCLLNNFYPREAKVQWKVDNALQSGNSQESVTEQDSKDSTYSLSSTLTLSKADYEKHKVYACEVTHQGLSSPVTKSFNRGEC
notes: also called hu37D3.v1 hIgG1
Regarding B6, in assay [3], the Kd was 2.3 nM, the koff came to 0.001 s⁻¹ and the on-rate constant (kon) was found to be 600000 M⁻¹ s⁻¹.

B7: hu94B2.v105 (94B2.HC1 + 94B2.LC13) (antibody, IgG1, V domains shown)
VH: EVQLVQSGAEVKKPGASVKVSCKASGYSLTGYTMNWVRQAPGQGLEWIGLISPYNGVTSYNQKFKGRATLTVDKSTSTAYLELSSLRSEDTAVYYCARQGAYWGQGTLVTVSS
VL: DIVMTQTPLSLPVTPGQPASISCKSSQSLLDSDGKTYLNWLLQKPGQSPQRLIYLVSKLDSGVPDRFSGSGSGTDFTLKISRVEAEDVGVYYCWQGTHFPWTFGQGTKVEIK
notes: also called hu94B2 HC1 + LC13
With B7, in assay [4], the Kd is 3.7 nM, the koff is 0.0003 s⁻¹ and the on-rate constant (kon) was 80000 M⁻¹ s⁻¹. Besides, the Kd in assay [5] was determined as 4.1 nM.

B8: hu125B11.v17 (HC3+LC1) (antibody, IgG1, V domains shown)
VH: EVQLVESGGGLVQPGGSLRLSCAASRFIFSNYWMNWVRQAPGKGLEWVAQIRLKSDNYATHYAESVKGRFTISRDDSKNTLYLQMNSLRAEDTAVYYCTGGTTYWGQGTLVTVSS
VL: DIQMTQSPSSLSASVGDRVTITCKASQNVGTAVAWYQQKPGKSPKLLIYSASIRYTGVPSRFSGSGSGTDFTLTISSLQPEDFATYFCQQFRTYPYTFGQGTKVEIK
notes: also called hu125B11 HC3 + 125B11 LC1
With B8, in assay [4], the dissociation constant Kd is 10.5 nM, the dissociation rate constant (koff) is 0.0008 s⁻¹ and the kon stood at 80000 M⁻¹ s⁻¹. Moreover, the equilibrium dissociation constant (Kd) in assay [6] was 18 nM.

B9: hu125B11.v26 (HC4+LC2) (antibody, IgG1, V domains shown)
VH: EVQLVESGGGLVQPGGSLRLSCAASRFIFSNYWMNWVRQAPGKGLEWVAQIRLKSDNYATHYAESVKGRFTISRDNSKNTLYLQMNSLRAEDTAVYYCTGGTTYWGQGTLVTVSS
VL: DIQMTQSPSSLSASVGDRVTITCKASQNVGTAVAWYQQKPGKAPKLLIYSASIRYTGVPSRFSGSGSGTDFTLTISSLQPEDFATYFCQQFRTYPYTFGQGTKVEIK
notes: also called hu125B11 HC4 + 125B11 LC2
For the molecule B9, in assay [4], the dissociation constant Kd is 9.5 nM, the koff was 0.0007 s⁻¹ and the on-rate constant (kon) was found to be 70000 M⁻¹ s⁻¹. Besides, the Kd in assay [6] is 14 nM.

B10: hu125B11.v28 (HC4+LC4) (antibody, IgG1, V domains shown)
VH: EVQLVESGGGLVQPGGSLRLSCAASRFIFSNYWMNWVRQAPGKGLEWVAQIRLKSDNYATHYAESVKGRFTISRDNSKNTLYLQMNSLRAEDTAVYYCTGGTTYWGQGTLVTVSS
VL: DIQMTQSPSSLSASVGDRVTITCKASQNVGTAVAWYQQKPGKAPKLLIYSASIRYTGVPSRFSGSGSGTDFTLTISSLQPEDFATYYCQQFRTYPYTFGQGTKVEIK
notes: also called hu125B11 HC4 + 125B11 LC4
As for B10, in assay [4], the equilibrium dissociation constant (Kd) is 10.2 nM, the off-rate (koff) was found to be 0.0007 s⁻¹ and the kon came out at 70000 M⁻¹ s⁻¹. Also, the Kd in assay [6] stood at 17 nM.
